PMC3790964 (Biochimica et Biophysica Acta, 2013)

Target: the molecule itself
Test: cross-linking + affinity purification with mass spectrometry

B1: stomatin (natural protein, human (endogenous in erythrocytes), UniProt P27105 1-288, looked up)
chain: MAEKRHTRDSEAQRLPDSFKDSPSKGLGPCGWILVAFSFLFTVITFPISIWMCIKIIKEYERAIIFRLGRILQGGAKGPGLFFILPCTDSFIKVDMRTISFDIPPQEILTKDSVTISVDGVVYYRVQNATLAVANITNADSATRLLAQTTLRNVLGTKNLSQILSDREEIAHNMQSTLDDATDAWGIKVERVEIKDVKLPVQLQRAMAAEAEASREARAKVIAAEGEMNASRALKEASMVITESPAALQLRYLQTLTTIAAEKNSTIVFPLPIDMLQGIIGAKHSHLG
- stoichiometry N: 2
